{"source": "paper PMC9633773", "about": "“Discovering cell-active BCL6 inhibitors: effectively combining biochemical HTS with multiple biophysical techniques, X-ray crystallography and cell-based assays” (Scientific Reports, 2022)", "target": "BCL6 BTB domain (BCL6 5-129, tag removed by HRV-3C protease) (human) (UniProt P41182)", "experiment": "fluorescence polarisation; competition: 10 nM BCOR-AF633, 3 µM BCL6 BTB, unlabelled peptide varied; 20 mM Hepes/NaOH pH 8.0, 150 mM NaCl, 0.5 mM TCEP, 0.05% Tween 20, 1-2% DMSO; 2 h at room temperature", "data": [{"substance": "WVIP tetrapeptide (Ac-WVIP-NH2)", "values": [{"measurement": "% inhibition at 980 µM", "value": 16, "unit": "%"}]}]}
